± gives the standard deviation.

This data set can be described thus: protein stability index of a GFP-peptide fusion (GPS, HEK-293T) (PSI 1-6); higher = more stable.
Setting [1] is: treatment: DMSO, c terminus: a fixed tail appended.
Where [2] appears, read: treatment: MLN4924 1 uM, 8 h, c terminus: a fixed tail appended.
Where [3] appears, read: treatment: DMSO, c terminus: native.
[4] abbreviates: treatment: MLN4924 1 uM, 8 h, c terminus: native.
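Note: 24-mer peptide tiles fused after GFP, lentivirally expressed, FACS-sorted into six equal bins by GFP/DsRed ratio, decoded by Illumina sequencing, PSI is the read-weighted mean bin number.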

Turning to KINLQGDIVDRGSTNLGVNQAGFT [ADD1], the protein stability index by setting is: under setting [1], 3.74 ± 0.25; under setting [2], 3.83 ± 0.19.
For NHLLHHFVIGHLKGAPASWWNHMH [FADS1] the same measures were 2.36 ± 0.56 and 2.31 ± 0.34.
On the same counts, the results for FMKYVDSNLCCFIPGKVIDEIYRV [FBXO28] are 2.99 ± 0.91 and 2.65 ± 0.4.
For TKPLAIHPCGDKNCPAHWLAQDWE [ADAMTSL2] the same measures were 2.73 ± 0.79 and 2.73 ± 0.12.
Turning to EERSPSFGEDYYGPSRSRHRRRSR [CLK3], the protein stability index is, setting by setting: under setting [1], 5.32 ± 0.2; under setting [2], 5.46 ± 0.062.
For SSSSSSSPTSGSPRGSHSSALERL [LURAP1L] the same measures were 4.83 ± 0.15 and 4.91 ± 0.14.
On the same counts, the results for PSDLDLVMSEGLGMRYAFIGPLET [CRYL1] are 2.46 ± 0.63 and 2.6 ± 0.39.
On the same counts, the results for LIFSVQPKSLVRLSLEAVICFKEM [KLHDC2] are 1.88 ± 0.17 and 2.04 ± 0.31.
Consider GIEPLYIKAEPASPDSPKGSSETE [ESRRA], for which the protein stability index is 5.57 ± 0.21 under setting [1] and 5.36 ± 0.33 under setting [2].
For NFADEDEAQAFRALVQEKIQKRNQ [WAS] the same measures were 4.55 ± 0.29 and 4.62 ± 0.3.
For MVEADHPGKLFIGGLNRETNEKML [RBMY1A1] the same measures were 3.91 ± 0.23 and 3.92 ± 0.093.
Consider CVLTTPCLTQSTAAPAVRASSSPV [SLA], for which the protein stability index is 3.47 ± 0.13 under setting [1] and 3.49 ± 0.14 under setting [2].
On the same counts, the results for EEPVPRERDRDPCGGSGGGGGGGG [LURAP1L] are 5.69 ± 0.29 and 5.67 ± 0.22.
On to KDLDGMDADILGLKKSNSAPSKKA [FBF1], for which the protein stability index was found to be 5.03 ± 0.22 under setting [1] and 5 ± 0.18 under setting [2].
For ISRAQYNALTLTFQRAMHDYNQAE [STX11] the same measures were 2.21 ± 0.14 and 2.35 ± 0.14.
On the same counts, the results for SAIQALRSSVSRVFDCLKDGMRNK [MED27] are 2.7 ± 0.33 and 2.49 ± 0.28.
On the same counts, the results for LFSLNVISLTCVSVAFAVAWFLPM [SLC19A2] are 3.12 ± 0.48 and 2.8 ± 0.23.
Regarding QENYLEYRQVPGSDPARYEFLWGP [MAGEA10], the protein stability index by setting is: under setting [1], 3.28 ± 0.27; under setting [2], 3.54 ± 0.32.
On the same counts, the results for NWWIRGILTLTMISLFFLIIYMGS [CDS1] are 2.54 ± 0.16 and 2.55 ± 0.35.
On the same counts, the results for DQAGGEGKHITVFKTYISPWERAM [MYOZ1] are 2.91 ± 0.27 and 2.84 ± 0.39.
For KNERLWLLDDSKTWWRVRNAANRT [NCK2] the same measures were 2.31 ± 0.23 and 2.62 ± 0.37.
Consider QNFKNRESYPEDTVFYIPEDHKPG [DLC1], for which the protein stability index under setting [1] was 4.63 ± 0.087 and the protein stability index under setting [2] is 4.53 ± 0.44.
With TSSSTSGSSDKVYAHQMVRTDSRE [MLH1], the protein stability index amounted to 5.08 ± 0.17 under setting [1] and 5.1 ± 0.17 under setting [2].
For the sequence LAMLNAVTEDLRLKDWEHSIALRN [SCARA5], the protein stability index runs as follows: under setting [1], 2.86 ± 0.17; under setting [2], 2.93 ± 0.16.
On the same counts, the results for DQSKLAGLLDLNNAILQLVKKYKS [ESRRG] are 2.4 ± 0.26 and 2.31 ± 0.5.
On to YWEAWRHHCQGKDLTEWVDGCDF [SPACA3], for which the protein stability index turned out to be 2.84 ± 0.15 under setting [3] and 3.04 ± 0.25 under setting [4].
For the sequence EHGPSPGQDTFCQGKADGLYPNPR [CHIT1], the protein stability index runs as follows: under setting [1], 4.38 ± 0.26; under setting [2], 4.36 ± 0.53.
For GGAGREDPGLWSRLCRLAGASSPA [ZSWIM9] the same measures were 3.12 ± 0.17 and 2.92 ± 0.36.
For SGPAASEHSHRSHHSLASSLRSHH [DVL3], the protein stability index is, setting by setting: under setting [1], 3.92 ± 0.16; under setting [2], 3.91 ± 0.33.
On the same counts, the results for LELLGASFANDRENYDIIKTYHYL [FEM1B] are 2.32 ± 0.43 and 2.17 ± 0.36.
As to DSSMILTVPGQALACGSNRFNKLG [NEK8], the protein stability index reads like this: under setting [1], 3.29 ± 0.17; under setting [2], 3.2 ± 0.22.
On the same counts, the results for KMKQLTEETEVLAHEIERLQMEMK [TRIM35] are 4.06 ± 0.55 and 3.63 ± 0.28.
For TEYQIVTDPGDVPAFLKWLSLASL [SLC2A12] the same measures were 2.26 ± 0.35 and 2.16 ± 0.42.
For ELDLRLRLAQPSSPEVLTPQLSPG [RTN2] the same measures were 4.23 ± 0.24 and 4.22 ± 0.15.
As to LLVSLVTTVVVFVASMVLGECRQM [CLCN6], the protein stability index reads like this: under setting [1], 3.02 ± 0.73; under setting [2], 3 ± 0.94.
On the same counts, the results for DAMQLNDKWQGLCWPMMDFLRCVT [CMTM3] are 2.22 ± 0.38 and 2.26 ± 0.14.
On the same counts, the results for QVKSRQNKTNKNSVSSCDQEHQSA [SMOC2] are 5.1 ± 0.32 and 5.34 ± 0.16.
On the same counts, the results for VIFGVELPGNEEFQVVKDAVLDCL [TENT5D] are 2.23 ± 0.41 and 2.25 ± 0.24.
Turning to AAEVGTGQYATTKGISQTNLITTV [EPB41L3], the protein stability index is, setting by setting: under setting [1], 3.54 ± 0.13; under setting [2], 3.5 ± 0.41.
Regarding YVFFEKDFGDMHSYVRSRKRLREE [TRIB1], the protein stability index under setting [1] came to 2.46 ± 0.59 and the protein stability index under setting [2] turned out to be 2.66 ± 0.93.
For APDKTSTVLTRHSQPATPTPLQSR [PDLIM7], the protein stability index is, setting by setting: under setting [1], 4.68 ± 0.17; under setting [2], 4.82 ± 0.23.
For CSLDKRVILIFHCEFSSERGPRMC [CDC25B] the same measures were 2.28 ± 0.63 and 2.54 ± 0.83.
On the same counts, the results for LLKQGYNKTLLRLRLRKERVSDVQ [PKD2L1] are 2.35 ± 0.28 and 2.44 ± 0.27.
On the same counts, the results for PTVKDLIGGFTALHYAAMHGRARI [ASB7] are 2.56 ± 0.47 and 2.4 ± 0.43.
With LVITDFFGHLINGAIAVFVYASDK [PTGFR], the protein stability index is 3.39 ± 0.23 under setting [1] and 3.56 ± 0.49 under setting [2].
For TNRWSFDGIDRWIKEIDEHAPGVP [RAB40C] the same measures were 3.91 ± 0.17 and 3.97 ± 0.22.
For NTGYRLQNNENNISCVERGWSTPP [CFHR2] the same measures were 3.67 ± 0.19 and 3.66 ± 0.22.
On the same counts, the results for LCLACSAGYYELAQVLLAMHANVE [ANKRD17] are 2.96 ± 0.48 and 2.56 ± 0.25.
For EEDNWDPELMEHTEAESEQEGSSG [TEX19], the protein stability index is, setting by setting: under setting [1], 5.7 ± 0.26; under setting [2], 5.65 ± 0.16.
On the same counts, the results for IMTVKEDQFSALGLDPCLLEDELD [SLC6A17] are 4.45 ± 0.33 and 4.46 ± 0.3.
On the same counts, the results for RYAPLSFRNPMMSKLRNYRKDLAK [VTI1B] are 2.76 ± 0.23 and 2.74 ± 0.18.
For GRTLIGFLRSIDQFANLVLHQTVE [LSM1] the same measures were 3.37 ± 0.64 and 2.75 ± 0.5.
In turn, AACLLQLKGVKQACCEFLESQLDP [KLHL12] showed a protein stability index under setting [1] of 2.97 ± 0.45 and a protein stability index under setting [2] of 2.88 ± 0.33.
For AVLASCSQYFRSLFSSHPPLGGGV [KLHL14] the same measures were 2.4 ± 0.37 and 2.22 ± 0.22.
With ARTQMILLRRSVEGASSDNGCEVK [PHTF1], the protein stability index was 3.68 ± 0.24 under setting [1] and 3.98 ± 0.2 under setting [2].
On the same counts, the results for KILISGLEPSTPYRFLLYGLHEGK [TNXB] are 2.75 ± 0.77 and 3.54 ± 2.4.
For IFLFQDILVLTRPVTRNERHSYQV [NET1] the same measures were 2.58 ± 0.28 and 2.27 ± 0.27.
On the same counts, the results for TRDLAGLRQFFKQLPSPPFLPAAG [CEBPD] are 2.56 ± 0.28 and 2.44 ± 0.048.
For the sequence KPDGSRHQDVPSQDDSKPTQRQFT [AASDHPPT], the protein stability index is, setting by setting: under setting [1], 5.44 ± 0.14; under setting [2], 5.353 ± 0.026.
On the same counts, the results for KLAIIPGGGGTQRLPRAIGMSLAK [AUH] are 2.79 ± 0.05 and 2.88 ± 0.52.
On the same counts, the results for FLTSRTRALLRRFPRMLLVDRLPG [ZSWIM9] are 2.57 ± 0.56 and 2.41 ± 0.39.
For QILGQTLKASMRELGLLIFFLFIG [KCNA1] the same measures were 2.67 ± 0.67 and 2.45 ± 0.51.
For the sequence MHVACQHGQENIVRILLRRGVDVS [RIPK4], the protein stability index under setting [1] stood at 2.29 ± 0.32 and the protein stability index under setting [2] came out at 2.24 ± 0.45.
As to YEDGTELTEDYFPSVPDNAELVLL [DFFB], the protein stability index by setting is: under setting [1], 3.52 ± 0.36; under setting [2], 3.7 ± 0.23.
In the case of VFGFIAAYVLSKYQYFVCPVEYRS [CDS1], the protein stability index is, setting by setting: under setting [1], 3.38 ± 0.39; under setting [2], 3.15 ± 0.27.
Take FWLQNSSPSSDRVSAIIWEGNECK [PHTF1]: the protein stability index was determined as 2.41 ± 0.32 under setting [1] and 3.07 ± 0.4 under setting [2].
For ATSLFVELDEEEVKAATTEPTEVE [BCL2L13] the same measures were 5.48 ± 0.4 and 5.62 ± 0.12.
Take EEVVYDLSIRGFNKETAAACVEK [TSN]: the protein stability index amounted to 4.39 ± 0.14 under setting [3] and 4.38 ± 0.27 under setting [4].
Sequence TDAHVWNKSVTLYTVKDKATGEVL [NLN] yielded a protein stability index under setting [1] of 3.46 ± 0.6 and a protein stability index under setting [2] of 3.36 ± 0.55.
For SPLYADPYTPPATSHRRVTDVRGL [PLEKHN1] the same measures were 3.76 ± 0.35 and 3.63 ± 0.35.
On the same counts, the results for STFIRRYSRYLNEKAFSYRQMAFD [SNAP91] are 2.11 ± 0.24 and 2.22 ± 0.28.
VGGYFVDKFVATMYHYLQFAYYKL [P3H4]: the protein stability index was found to be 3.67 ± 0.73 under setting [1] and 2.56 ± 0.048 under setting [2].

The values above are taken from the supplement of paper PMC10567573.
